Results reported in the supplement of paper PMC12042874.
± gives the uncertainty stated by the source.

assay: amyloid nucleation score (Sup35N fusion, yeast selection) (log enrichment); library NNK1; higher = more nucleation; inactive = no reads after selection
In short: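 Output and input plasmid inserts were sequenced by Illumina after psi-negative yeast carrying Sup35N fused to peptides of 20 random codons had been induced 24 hours with 100 μM copper sulfate and grown 7 days at 30°C on medium lacking adenine and uracil. The nucleation score is the DiMSum log enrichment of output over input reads, centred on the mode score of non-aggregating sequences. Sequences with under 100 input reads were excluded.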

| Substance | amyloid nucleation score |
| --- | --- |
| YWAKCGWQAGKRYEV | 0.803 ± 0.77 |
| YGLPFHVPACCAYLVVCKGR | -0.018 ± 0.54 |
| VGGQRKVRSDDVSMDVHTAT | 0.924 ± 0.47 |
| SYWCSHIIIERMLVLVHRIV | 1.19 ± 0.59 |
| EHGERAQGPISGMLGRKCIE | 1.04 ± 0.98 |
| SVLGSHSRAKLITAWPTRKI | inactive |
| SMGQHHMGGWVYGRKAEKLS | -0.185 ± 0.37 |
| ISLRGRCITSKGSSYYAIKY | inactive |
| EAVVRRLSEDSCMELSSDCR | 0.485 ± 0.52 |
| MFSLYYPFSNWFDLI | -0.001 ± 0.52 |
| YRITERIFFDQKASHVWLIT | -0.165 ± 0.41 |
| MYISRFRF | 3.42 ± 0.15 |
| LLNLYWFLSVPDTINLSHER | 8.087 ± 0.05 |
| GRSTNSSDISNHMRNS | 0.961 ± 0.31 |
| LLWTGY | 2.43 ± 0.099 |
| STTILCLLI | 5.21 ± 0.061 |
| FEWRFPHQR | -0.025 ± 0.64 |
| KVIRVYRADCCFTGWHFAVA | -0.224 ± 0.77 |
| IGILMVACRLHNVSLYLCSG | -0.514 ± 0.96 |
| SFWYYGDEKNVTVNLGFNES | -0.233 ± 0.79 |
| YSIDTGS | inactive |
| PHDSFLMHTDSGEHWGPVYR | 0.037 ± 0.36 |

| Substance | amyloid nucleation score |
| --- | --- |
| MPDYVSFTSRMPLRLKLLLS | inactive |
| HFASRLMRKEFAVRFLRGFS | -0.608 ± 1.2 |
| FYQLYLINSTCHGRSRYILS | 0.155 ± 0.51 |
| SESLWDRGTVPKRPCAASLQ | inactive |
| YLFSIVFCNV | 2.67 ± 0.29 |
| WCLGMWLLHVLTTETTFKCT | -0.158 ± 0.34 |
| LFTTFNNLISVFTVVLNSNQ | 6.79 ± 0.076 |
| NSVFVPFGKEF | -0.493 ± 0.39 |
| IDMTQGMRLQWMFNRALLCW | 0.813 ± 0.72 |
| QLLFRRYKMGIVSRYSVITR | -0.339 ± 0.53 |
| GYGWHLSANNPVSNIRCPRA | -0.407 ± 0.42 |
| SRWPAVVRTLFRSCKV | 0.48 ± 0.65 |
| SFNVAMCRCDVYL | 7.027 ± 0.047 |
| RYVSLDRPYTSNNNRYAKGV | 0.475 ± 0.22 |
| ATVDGRLIRDVSISCMGYDV | -1.12 ± 2.4 |
| TNYWPVIFG | 0.116 ± 0.36 |
| LNVNRWYTISL | 0.972 ± 0.25 |
| GKSNLARHAPNLEVTMRGTE | 1.27 ± 0.42 |
| NNCANIGRIEFMPGHYDMCV | 1.11 ± 0.36 |
| NINPLFI | 1.96 ± 0.26 |
| WMDNTSHRFESCEV | 0.635 ± 0.55 |
| RDSAL | 0.274 ± 0.4 |

| Substance | amyloid nucleation score |
| --- | --- |
| ETLSFGKHLPRVHAFHHVRC | -0.671 ± 1.2 |
| TCGLHQPFLGLFVSSSSIMT | 0.175 ± 0.41 |
| RNQFDYDRWYVMRSHYRVIC | -0.526 ± 0.58 |
| RGGRRDWLCIFRGRLGVA | -1.08 ± 0.78 |
| IRANLEDVLHIFIPVEGHSR | -0.655 ± 1.1 |
| CMMMYVCLLSSGHVGMSLGV | 0.18 ± 0.43 |
| YILVYSSVTRRYHKSRSYVG | -0.09 ± 0.29 |
| DDFAMLE | inactive |
| YFLRHCCPD | -1.8 ± 2.4 |
| DLVAVQESWTLYSLVPQLFY | -0.103 ± 0.4 |
| FKHDYKFEGVCRVNDFLMGF | -0.115 ± 0.9 |
| QAKLPLTIDCMKCGTVGTGR | -0.16 ± 0.34 |
| TLFYFMACGQLLFGKRWNWF | 0.095 ± 0.58 |
| SIMLADYPIHLVSNTPRMVL | 0.809 ± 0.82 |
| FGYRMAYGSHVFVHSYRTEP | 2.42 ± 0.24 |
| YLAGILHTCLTLDSDVRFYT | 0.722 ± 0.54 |
| LGFACLSIILSRKSKMWDML | 2.13 ± 0.11 |
| GSDCSKAAFDPPFRSYDNAT | 0.429 ± 0.33 |
| LLQNNCHLYYCLNGLVFRVR | 0.162 ± 0.32 |
| LQERWMAMGGGGQGVVWGFT | 0.305 ± 0.79 |
| SRISMVMVLSLFSVKFRWNP | 0.328 ± 0.24 |
| ETLAFVLRFRNREDFCGGMV | 1.01 ± 0.64 |

| Substance | amyloid nucleation score |
| --- | --- |
| RVRLTFCCLMAVRSRSMISK | 0.436 ± 1.2 |
| IIWRDNNTPYD | 1.96 ± 0.7 |
| CMWWSCGSNIVYVALLMWCH | -0.191 ± 0.4 |
| LGCYTLESLGEYDNSNNWLL | 0.932 ± 0.69 |
| IYGELLHLWLISEFCDVRNC | 0.788 ± 0.79 |
| CLFKGLCSGWLREYALPYFC | -1.05 ± 0.97 |
| RVLRQMKSIC | -0.44 ± 0.83 |
| LAPISSASLQTFPVAIFRFR | 0.122 ± 0.43 |
| VLGLLITGDRLS | 0.1 ± 1.4 |
| CSSALGIMKWTRIYVCRGRG | 1.6 ± 0.24 |
| TCFMNVSTQFCMSYKAQRSV | 0.11 ± 0.59 |
| NGFRSVQVLGKGAVMCVNCR | inactive |
| YLLLGYSHYQMNVLFNTRQS | inactive |
| AWRSFIGYRMRVWIGYRGCY | 0.186 ± 0.95 |
| ADVQWRHRTGISSSIVRSGA | 0.822 ± 1 |
| FSYRSIWLRVLRV | -0.111 ± 0.4 |
| VLCSSWLLWKDAI | 0.218 ± 0.61 |
| NGSRYLANYSQS | 0.23 ± 0.36 |
| TVVEVRGVEQRHGLNCTNPG | -0.05 ± 0.57 |
